For experiment [1], the target named is T1, α5β1 integrin protein, covalently immobilised on the optical biosensor cuvette.
T1 construct: The methods call the immobilised protein 'the α5β1 protein' and also 'immobilized α5'; The results speak of α5β1 integrin; also called α5β1 protein; immobilized α5 integrin
Description: optical biosensor (IAsys), α5β1 immobilised, DV free in solution; Kd from Koff/Kon. As to the method:
(§1) Binding assays were carried out using an optical biosensor (IAsys; Affinity Sensors, UK) as described¹⁰⁸. In brief, to covalently bind the α5β1 protein, designated as an acceptor, onto the surfaces of a sensor, carboxylate groups present on the surface were activated by injection of a 1:1 mixture of 0.1 M N-hydroxysuccinimide and 0.4 M N-Ethyl-3-(3-dimethylaminopropyl) carbodiimide (Pierce). The acceptor dissolved in phosphate buffered saline (PBS) was then allowed to bind to the activated surface until a response plateau was reached. The residual active groups were blocked by an injection of 100 μL of 1 M Tris-HCl (pH 8.5).
(§2) The binding of DV to α5β1 was also investigated. DV's DGR sequence was mutated to AGR (D3904A) to determine whether this could disrupt DV binding to α5β1 as measured with optical biosensor (FIG. 18A).

Experiment [2] addresses T1, α5β1 integrin protein, covalently …. Description: optical biosensor (IAsys), α5β1 immobilised, DV free in solution. As to the method: as §1, §2

B1: Human perlecan Domain V (DV), recombinant, with C-terminal 6×His tag (ligand)
chain: EIKITFRPDSADGMLLYNGQKRVPGSPTNLANRQPDFISFGLVGGRPEFRFDAGSGMATIRHPTPLALGHFHTVTLLRSLTQGSLIVGDLAPVNGTSQGKFQGLDLNEELYLGGYPDYGAIPKAGLSSGFIGCVRELRIQGEEIVFHDLNLTAHGISHCPTCRDRPCQNGGQCHDSESSSYVCVCPAGFTGSRCEHSQALHCHPEACGPDATCVNRPDGRGYTCRCHLGRSGLRCEEGVTVTTPSLSGAGSYLALPALTNTHHELRLDVEFKPLAPDGVLLFSGGKSGPVEDFVSLAMVGGHLEFRYELGSGLAVLRSAEPLALGRWHRVSAERLNKDGSLRVNGGRPVLRSSPGKSQGLNLHTLLYLGGVEPSVPLSPATNMSAHFRGCVGEVSVNGKRLDLTYSFLGSQGIGQCYDSSPCERQPCQHGATCMPAGEYEFQCLCRDGFKGDLCEHEENPCQLREPCLHGGTCQGTRCLCLPGFSGPRCQQGSGHGIAESDWHLEGSGGNDAPGQYGAYFHDDGFLAFPGHVFSRSLPEVPETIELEVRTSTASGLLLWQGVEVGEAGQGKDFISLGLQDGHLVFRYQLGSGEARLVSEDPINDGEWHRVTALREGRRGSIQVDGEELVSGRSPGPNVAVNAKGSVYIGGAPDVATLTGGRFSSGITGCVKNLVLHSARPGAPPPQPLDLQHRAQAGANTRPCPSHHHHHH
notes: Cloned from HUVEC cDNA into pSecTag2A or pCepPu, secreted from 293 cells and purified on Ni beads; also called endorepellin; rhDV
As to B1, binding in experiment [1] was put at a Kd of 160 nM. The dissociation rate constant (koff) (in general, the first-order rate constant of dissociation) in experiment [2] stood at 0.72 s⁻¹.
